The values that follow come from the DeepSol protein solubility set.

A short description of the series: soluble on expression in E. coli; label from the status in PepcDB or PDB records.
As for “MNNTDYMIHLLARTIKTGKDELITPLIIQLSDMQVSRDLLEKHNLPALVAEYAPFNEAAKSLSKSVLAWKYEEIAQEMPQLLKEFVQIAKEKRVPEEFMVRLVTSLMDFDDLDTVRSCLEILNHFEFSLDEYEELGIYRKATQFEGQFRDADEIIAKVDVLLLQDEILEEDEAEVEADDLIGHAEENEEEENDFSDDESVISETESGIYTDEELELEDHFEAVRKEDRKDQVMTEICMMLLAGYIRSGNSEVISAAIKFTWAFDYSLEMYQKYDIQNLIYNFGVHNDDAELLMNHIKELQARELFNENRKFFKRFLRTCMEEKTITDSVLSYLKGFLENGDDYMVSCTLKFLLGMPITLSQFKTSHVEACLENLESGPSAQLGFMLKMKIQKLEHSEKS”, the “soluble on expression in E. coli” value is “not soluble”.
As to “MNNTPKLKLGIVAVSRDCFPMELSENRRKAVVDAYNGEIFECLTTVENEKDMRKALKEVKSAGVNALVVYLGNFGPETPETLIAKEFDGPVMFAAAAEERGDNLVNGRGDAYCGMLNASYNLALRNINAYIPEYPVGTASDVANMINEFVPVATALIGLKNLKIISFGPRPQDFLACNAPIKQLYNLGVEIEENSELDLFASFNEHENDSRIPDVVKDMEEELGEGNKMPGILPKLAQYELTLLDWAEEHKGSREYVVFANKCWPAFQTQFGCVPCYVNSRLTARGIPVSCEVDIYGALSEYIGTCVSQDVVTLLDINNTVPKDMYESEIKSKFNYTLKDTFMGFHCGNTAACKLTSGTMKNQMIMARALEPNQEPNITRGTLEGDIVPGEITFFRLQSNADSELTAYVAEGEVLPVKTRSFGSIGVFAIPQMGRFYRHVLIENRFPHHGAVAFGHFGKAIYNLFRYLGVKEVGFNRPKEMLYKTENPFELEHHHHHH”, the “soluble on expression in E. coli” value is “soluble”.
For the sequence “MNNYLKNLKEVFARIFRPNNRKSTRTYLQRSISYWRRNSIYLDNIYNKISTDTAQLRFKHVKITRNPGGVDSMVWYEHSDLAEVLTVSPNPLEVPVVFWSNVTRAMLRDGVAVVVPRWKNGRLVEIWLAKKTVTWTAESVELMLDDVAVELPLTDVWVFENPKLNVTAQLNQITELIDINLNALTEKLSDGNSSLRGFLKLPTKAADEHLKQQARDRVDSMLDLAKNGGIAYLEQGEEFQELSKDYSTASKEELEFLKSQLYNAHGINEKLFTCDYTEEQYRAYYSSVMKLYQRVYSEEINRKYFTKTARTQGNKLLVFFDMADMISFKDLVEGGFKSKYAGLMNSNEFRETYLGLPGYEGGEVFETNLNAVRIGAEESE”, the “soluble on expression in E. coli” value was “not soluble”.
For the sequence “MNNYSGDIVFMSGGNEEDQLAQCQAYVQRHNIQQLVKEAIVVLCIHKPDNPVLFLKDHFEKLNEQRAQEGGNPDAADDDDIIVEPPKRSGGRRTGISAEPIKEDDTEYKKVVIPKDDATRRSLESAMRKNLLFAHLEEDEQKTMYDAMFPVEKSAGETIIEQGEEGDNFYVIDKGTVDVYVNHEYVLTINEGGSFGELALIYGTPRAATVIAKTDVKLWAIDRLTYRRILMGSVTKKRKMYDEFLSKVQILADLDQWERANVADALERCDFEPGTHVVEQGQPGDEFFIILEGEANVLQKRSDDAPFDVVGHLGMSDYFGEIALLLDRPRAATVVAKTHLKCIKLDRNRFERVMGPVREILKRDVSNYNSYVKLMT”, the “soluble on expression in E. coli” value is listed as “soluble”.
On to “MNPGKPMPLVVHGWTIFAHPLFLAQIEVLIQQVEAHKQKDPVGFVKKNASKRLAAITKLAFDIILQDPARPEYRQGGTLGDDYKHWFRAKFFQQYRLFFRYHTLSKVIVFAWVNDEDTRRAYESSDDAYRMFRKMLENGLPPDDWNQLLAEARAEGQRLQQFAARWW”, for which the “soluble on expression in E. coli” value is recorded as “not soluble”.
Consider “MNPKIEDSEFNWENEDIVMKLVDEKGKAHPVSKAELLESLESRKLGLETRVLDKYHENHVAFENVLVLDAPQDLETIVNLLLPWYMGKTLTLFEGPLNYPDSSRLAQIISKHNVDIVLGSDYNYSIPNPEYLKLFPVPSLKLVDLPNFESISNYLTISR”, for which the “soluble on expression in E. coli” value is “not soluble”.
For “MNPLVIKLGGVLLDSEEALERLFTALVTYREKHERPLVIMHGGGCLVDELMKRLALPVVKKNGLRVTPADQIDIITGALAGTANKTLLAWAVKHQINAVGLCLADGNTVTVTLLDAELGHVGKAQPGSAALVQTLLAAGYMPIISSIGITVEGQLMNVNADQAATALAATLGADLILLSDVSGILDGKGQRIAEMTAQKAEQLIAQGIITDGMVVKVNAALDAARSLGRPVDIASWRHSEQLPALFNGVPIGTRISV”, the “soluble on expression in E. coli” value was “not soluble”.
With “MNPRQAFFACLHRSPPALLEAALWIAAEHDPQVVPGLLLEEFKQLQQQVGSSLPTLPANELGQPLLRRLNDLGFQQDEHLPLRPQAALMDKVLERRRGQPLALALIALELAQRLQVPLAGVNFPGHFLLRVPGADHLLDPCGGRRLYPNDCRELLQRQYGAHIKLSAEHLASAEPLQMFQRLSRNLRQLHLSYDDHLGALINAERVLEIGNGSAADYLARASLYQRLECPNAERFDLEHALLLSDDPIQRLRLTERLGHLPPNTIVHLEHHHHHH” the entry was “soluble”.
The same measure for “MNQGEIVYQDDDDYYDESEIYDNYEEGAEFIEVNGQLVPHNPAQQNRPGTSSMIQQHNRSMEVNQGLVKDEPIDTSSHRVYVPPPRPVQRKPGPSTPGSSQYTVRNLSNLSGSPSMYDRQPASLPRTVQPMGLEMGNSEQRKVYIDMKDHVSHIRLKTKKKVFAPGQRKPCNCTKSQCLKLYCDCFANGEFCRDCNCKDCHNNIEYDSQRSKAIRQSLERNPNAFKPKIGIARGGITDIERLHQKGCHCKKSGCLKNYCECYEAKVPCTDRCKCKGCQNTETYRMTRYKNSGGAVSNTNALMSLTNASSTATPDSGPGSVVTDEHGDDYEDMLLSHKPKVEMDPRRFPWYYMTDEVVEAATMCMVAQAEEALNYEKVQTEDEKLINMEKLVLREFGRCLEQMITNTTELTQDLDAAPTDDIPGPSTSTS”: “not soluble”; for “MNQIIENAFVKVEVSPHGAELQSIFNKQFHLEYLWQGDPAVWPRKAPVLFPIVGKVKDNQYTISGKTYSLSQHGFARDNAFTLVSATDTTLVYRLTHSEDSFKNFPYEFELDISYSIEHSILKVAYKIHNSSGTSDLYYSIGAHPGFRCPLVEGETFEDYYLEFEKAEKLNRVLLDGGLRGDQTEPVPLTNNKLPLSVNLFGSKDAIVVSGLHSERISLKSNKSVHGLHFDYKNYPWFGIWSKPGPFVCLEPWMGVADDIHAAGDFIKKESIQFLQPKAEALFTYSIELFLEHHHHHH”: “not soluble”; for “MNQKDTRKETLEFNKLQKRLRRNVGNAITDYNMIEEGDVVMACISGGKDSFAMLDILLNLQKAAPIKFEVVAVNLDQKQPGFPEHILPEYFETLNIPYYIVDKDTYSVVKEKVPEGKTTCGLCSRLRRGTLYSFAEKIGATKLALGHHMDDIVETMFLNMFHGSRLKAMPPKLRSDDGRNVVIRPLTYCREKDLIKYAEHKDFPIIPCNLCGSQENLQRQAIKAMLIDWDKKTPGRVEAIFKSIQNVSPSQLADRELFDFVNLPLDRDGSREEYEFSEAVVSSTNIDESLFIDVTNI”: “soluble”.
In the case of “MNQQDIEQVVKAVLLKMKDSSQPASTVHEMGVFASLDDAVAAAKRAQQGLKSVAMRQLAIHAIREAGEKHARELAELAVSETGMGRVDDKFAKNVAQARGTPGVECLSPQVLTGDNGLTLIENAPWGVVASVTPSTNPAATVINNAISLIAAGNSVVFAPHPAAKKVSQRAITLLNQAVVAAGGPENLLVTVANPDIETAQRLFKYPGIGLLVVTGGEAVVDAARKHTNKRLIAAGAGNPPVVVDETADLPRAAQSIVKGASFDNNIICADEKVLIVVDSVADELMRLMEGQHAVKLTAAQAEQLQPVLLKNIDERGKGTVSRDWVGRDAGKIAAAIGLNVPDQTRLLFVETPANHPFAVTEMMMPVLPVVRVANVEEAIALAVQLEGGCHHTAAMHSRNIDNMNQMANAIDTSIFVKNGPCIAGLGLGGEGWTTMTITTPTGEGVTSARTFVRLRRCVLVDAFRIV”, the “soluble on expression in E. coli” value is reported as “not soluble”.
For the sequence “MNREGAPGKSPEEMYIQQKVRVLLMLRKMGSNLTASEEEFLRTYAGVVNSQLSQLPPHSIDQGAEDVVMAFSRSETEDRRQ”, the “soluble on expression in E. coli” value is given as “soluble”.
On to “MNRHPALSLDLDDGIDRKVLGQLRQRFLAVNAGRLQRARQALSSRQERVLRLLPLLFHINHPLLPGYLSASTPAGLSGFEADDEVLAEAQRLARSFVYKPRRQEPAQQPIHGLFLMGSLGSLAQEEQSDLDLWVCHAPELEPGARQELRRKCALIEDWARSQGSEVHCFLIDVARFGQDEREDRKEPGGDGNTQHFLLLDEFYRSAIWLGGRTPLWWLVPPAHERRYDEYCRTLLGKRFIRAEEVLDLGHLAHIPAREFIGAGLWQLSKAIDSPYKSLLKLLLTEAYASEHPRVRCVALRFKEQVFAGQLDLDELDPYVLVYRHLERYLREQQAPERLELVRRCLYLKVGRKLGGRQRQAQKGWQHLSMERLVAEWQWEPRRLALLDSRSQWKMRQVMEERRTVVNELTYSYRLLFQIARQQGADSGIDSRDLGLLGRRLYAAFERKAGKVENINPGIAPDLGEDVLTLVQLPADDGREQAQWAIFPGALGAHQWPDYAPLKRSLRLVELLAWCHRNGVIDSATRLSLHPGQSDLGDAELDNLLGSLRQFLPVPLATVDDADLLQPRRLKSVLLLVNVGVDPLRHHSQMNLHMATGRTDVLGYAGVRDNLVLTLDQLSLNSWNELTVRHYAGPQALPECLAEFLDAVREKPGSPPQPPELMVRCFCRNRAAAIAVRVEELFRETYGQLLGGQPSRYLLQIRQQYHLLEMSPEAVSHESLPDLPSLLQHLGRERDGYSALKLDRHALEGEDLGLILSMGRPDCIQVFYRRDFDSAEISLLDERNALWRQRQALRDERSLLAPLQRFLQSLLYRRNALSLAEQVPAALDIRYYELLSNDGRVHVEPREAPEALAGPALYELQALLERGERKRVQVTLYCDHQEFSELEYGAGLFKAVARHILAHRAESEPYPCYLTDLDLSRLFADEQPQTLHYLRYKSVLETALNQALLE”, for which the “soluble on expression in E. coli” value is “not soluble”.
“MNRHSTTSGNLNTVFGYVDEETVSQGISASYVGSGKLVGNRLVRHTQTSLFSSANTW”: the “soluble on expression in E. coli” value is given as “not soluble”.
Consider “MNRILIVEDEKNLARFIELELQHENYETAVANDGRAGLELALNEEWDAILLDLMLPHLNGVEVCRRVRQVKQTPIIMITARDSVIDRVSGLDHGADDYIVKPFAIEELLARLRSLLRRVENAEQSAKQTTLQYRNLIVEKENRIVKRDEEIIDLTKREYELLLTLMENVNIVLTREVLLNKVWGYETEVETNVVDVYVRYLRNKIDHPDEESYIQTVRGTGYVMRT”, for which the “soluble on expression in E. coli” value was “not soluble”.
Consider “MNRKIERMIIELEKECKAQNVELLLCATNFETGQGSTAFCGSVIGLAILLQKLVGDLKEQLSISESCDCPECVAEKAEDAANEKSMDELLTAFLRGELQ”, for which the “soluble on expression in E. coli” value was “not soluble”.
Take “MNRKTGTTTVGIKVKDGVILAADTQASLDHMVETLNIRKIIPITDRIAITTAGSVGDVQMIARILEAEARYYYFAWGRPMTTKAMANLLSNILNENKWFPYLVQIIIGGYVDEPTIANLDPYGGLIFDNYTATGSGTPFAIAILEEGYKENLGIEEAKELAIKAIKAAGSRDVYTGSKKVQVVTITKEGMQEEFIKL”: the “soluble on expression in E. coli” value was “soluble”.
For the sequence “MNRLKSDQKTKLRQFVQWTQVTEAVSLNFLAKANWNIEYAMTLYFDNPNLFAGSTPQPSVDRSNIERLFNQYVDPKDKVGEKRMGPHGINRLLTDLGYEATDRRVLVLAWKFTAQTQCEFSLDEWVKGMTALQADTVQNLRQRIDSINSGLESDKAKFHELYLFAFNYAKSAACRNLDLETAICCWDVLFGQRSTIMTQWIDFLWAQENAAASRLAQNVGASNAKQFKSVWISRDTWNLFWDFILLSKPDLSDYDDEGAWPVLIDQFVDYCRENLNYPKPGNASNDQQMETPSYY”, the “soluble on expression in E. coli” value was “not soluble”.
